Measurements: patent US20110009316A1

Legend:
[1] = molecular target: commercially available recombinant VEGF165 protein (R&D Systems) (UniProt P15692); assay: cell-based or functional assay
[2] = molecular target: VEGF165 wild type synthesized in COS-1 cells (UniProt P15692); assay: cell-based or functional assay
MutGln = MutGln (UniProt P15692)
[3] = molecular target: commercially available recombinant VEGF165 protein (R&D Systems) (UniProt P15692)
MutAla = MutAla (UniProt P15692)
[4] = molecular target: VEGF165 wild type synthesized in COS-1 cells (UniProt P15692)

Chain of MutLys-Pro (chain, as listed by the source): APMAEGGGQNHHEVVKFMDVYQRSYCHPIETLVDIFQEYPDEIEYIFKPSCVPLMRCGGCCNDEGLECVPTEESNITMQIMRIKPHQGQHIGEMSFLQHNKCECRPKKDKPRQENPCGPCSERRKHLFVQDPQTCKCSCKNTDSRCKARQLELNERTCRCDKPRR
Chain of MutPro (chain, as listed by the source): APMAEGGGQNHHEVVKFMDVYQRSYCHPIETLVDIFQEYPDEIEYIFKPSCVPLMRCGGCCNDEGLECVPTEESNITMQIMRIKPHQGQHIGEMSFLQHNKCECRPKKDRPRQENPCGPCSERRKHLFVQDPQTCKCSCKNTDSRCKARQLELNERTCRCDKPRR

Substance | loss of biological activity (BrdU incorporation into HUVE cells) 20 minutes after incubation with plasmin [1] [%] | remaining biological activity (BrdU incorporation into HUVE cells) after 240 minutes with plasmin (% of the initial activity) [1] | loss of biological activity (BrdU incorporation into HUVE cells) 20 minutes after incubation with plasmin [2] [%] | remaining biological activity (BrdU incorporation into HUVE cells) after 240 minutes with plasmin (% of the initial activity) [2] | degradation on incubation with plasmin [0.01 U/ml], Western blotting and immunodetection (MutGln) | degradation on incubation with plasmin [0.01 U/ml], Western blotting and immunodetection (MutLys-Pro) | degradation on incubation with plasmin [0.01 U/ml], Western blotting and immunodetection (MutPro) | degradation on incubation with plasmin [0.01 U/ml], Western blotting and immunodetection [3] | degradation on incubation with plasmin [0.01 U/ml], Western blotting and immunodetection (MutAla) | degradation on incubation with plasmin [0.01 U/ml], Western blotting and immunodetection [4]
plasmin (enzyme) | > 20 | 50 | > 20 | 50 | – | – | – | – | – | –
plasmin | – | – | – | – | also show a comparable stability of the signal bands at 45 and 42 kDA after incubation with plasmid for 240 minutes | also show a comparable stability of the signal bands at 45 and 42 kDA after incubation with plasmid for 240 minutes | also show a comparable stability of the signal bands at 45 and 42 kDA after incubation with plasmid for 240 minutes | the degradation pattern is similar to that of the commercially obtainable VEGF165 | the mutated protein shows no change in the migration behaviour up to 240 minutes after incubation | shows degradation of the growth factor after only 15 minutes
